Measurements from the domain aggregation screens of Martell et al. (2025).

Test: soluble fraction after stress (log2 fold change); higher = more stays soluble; pooled small domains, quantitative proteomics
Details: stress: 50 degC
In short: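 After stress at 50°C, the amount of each protein still soluble was measured. This was done on pooled custom libraries of small protein domains, using high-throughput quantitative proteomics. The figure given is a base-two log fold change and stands for aggregation propensity, with higher values meaning more protein stays in solution.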

In order of falling “soluble fraction (log2)” value:
1. HMNKIDVVEVDMSKPYEDMTVTELQNVILGKLASNGPVTDQMKKDVAENIYHDSLVNWAKSF  0.505
2. HMTKEGVNISITADGVQLSTESPNRVSIFNVNGTKVWEGIAPANVSLQKGVYILQTANGNTKFV  0.265
3. HMKELLTKQQREEILETVKTKTPKDFGYTAEHWTTGFLGKWIEEHYEVEYKSKTSLYLVFKKASFTYHKPG  0.228
4. HMVEQVEISILPGEYSDTISQKLLDAGLIDDKAAFSKYINDTNVDNLIQPGTFTVPKGASYEEVAKILT  0.212
5. HMQQPIPGEAYLTRRPGSDHFQIAFTIDGHRVRESSGTSDKVAAAALAQKRYEEVWREIKLGEK  0.2
6. HMFKYLLDTNIVIYVIKKRPIEVMGVFNQNANRMAISAITFSELQHGAEKSVRVQENLNAIEEFTTLIDI  0.181
7. HMSGGNTSAFKGKLNYEYRGNDTIITGSTYPVKELIKKAGGRWDPGSSAWIIKGRHVSDNEIF  0.171
8. HMDSKKNLLGKNGLAFTTLRPAGTVLIDGQRHDVISNGDMIPKGATVRVIAIEGASITVEALPD  0.155
9. HMQAATQVNIVGLFSNKAVVIINGGKPKTLSVGQTSEGVKLLAADSQTATLQIEGKTQQLGMGQAASVGG  0.134
10. HMDRYVDEEKRFYWRSGEAYLNFSKYKDRSLAEVATVDPGFLRWMMEADFSPETKQIVERALEGEFPQKK  0.123
11. HMRNLFWTEAQNAQNELNAMRINALTQSIRRIEPNFRGIPSLRDPNRPIPNEEVRDYENYLNRILP  0.119
12. HMRAPETEITYTEFKTALRAGQIETATVGIEQISGKLTDGDLYRTVRVDDPDLLKDLEANHVNAAGRV  0.104
13. HMPTLTPFDVARIENAINPRLNLETAAKLKPWIAAGYTAQETADGTGFSPDTVKKYAAIFRK  0.103
14. HMSEPQEISYSDFIEQVNRNEIRQVEFDGQHEYLTVIRKDTSRFKVIIPAPDPRLLDDLMEHDVEIVGKE  0.0895
15. HMPGDIRKAAILLMSLPREQAAQVLARLDPKQVEAVTIEIARLGTVTPDEQEQALKEFSQANPA  0.0798
16. HMSYKYYSTERPLMPGSFPKPQGNTVLNIENFNDRSYVGKIGREAWGFIEYEKPISPVLLDDYELVAA  0.0613
17. HMDYYDTLGVPRNASQSDIKKAYKKQSMQHHPDRTGGDDTKFKDVNEAYQVLSNSEKKQMYDQFGTA  0.0532
18. HMGPEVQLAYSEFLAKVKVGEVNDVMVKGNEIHGHFSDGRTFSTYSPNDPDLVEKLNKNKVMIKAAPP  0.0475
19. HMKEVDSESAFAERGISEVWIPALQKMGILTLEALDAANPNKVFNDLGGMRKKLKIDAAMPTKDEVTAWIQ  0.0238
20. HMSDVTPDVVRALRKRLKLTQVQFGEIFGMTSKKVSAWEHGKAEPTEEQKQKIQSLLKENNEQ  -0.0029
21. HMIAVLEEGSHFRAVNDVTGKPFGPEMVIKNGQVTAVGKTISTKPKNLLGKKEGTKFVISGKQYVIKDI  -0.00494
22. HMIPDPEKVMFDGGIRLLTQAGITEGKARSILGKWKRDHETERIIAALGAAQREGAIEPVSFIERVLRN  -0.0153
23. HMGADRLVGMTAIVTATIDPNDTDRKGRVQVEGEVWSALSDGRLIITEGSKVRITEMHGTRVRVEAI  -0.0351
24. HMKNYALHEPMMDRIAKVNALYDAGHTIKYMTARGAVSMVDYYDLTKSQLDSWGAKYHELSVGK  -0.0372
25. HMPREVKLPPDLLDALEASPEAKAFFLQLSYTHQKEYAQWIEEAKQEATRQRRLEKTVQMLLEGRRT  -0.0798
26. HMFHFELNAAKQALEDRKTIDRAKGILMRQRGMSEDDAYKLLRTTAMSQNRKVIDVAQALVTAADLL  -0.0832
27. HMVSMSFDDYVNDAKEYESEGDKDKAYNSYLEAYKLNKSSEEVLDYLIDNTEDVTLKLNYVYEYLDL  -0.0996
28. HMRAGEAVTGQVIGVKEDEIILSIAGSKSEGIITRSEFTNEPNVDLTTKVSVGDELEVKVLKVNDGEGMAS  -0.171
29. HMSSVEQAILETLSKEHSHLTSLQVFEEIRGRLPAVNQSTVYRALERLVEQGVVSVSDMGTHAAVYE  -0.177
30. HMPVTKSARQSRIGELIAREPVRSQSELAARLADDGIVVSQGTLSKDLLELGAVRVRTSSGELAYALL  -0.18
31. HMTSPELIELGERIRKRRQEMNLSQEALAEKAGISINTVSRVEGGQTAMSIEIFRKMIEILETDANGL  -0.212
32. HMNPVVATTIILDGEIIKDNLAEANLSEEWLLEELKRQNFNDVKEVFYAEWLDGKQLFAYPYTK  -0.224
33. HMEHGQWLSEAQGASLAADWLARRRGVLPLNARRHLSGLSDQIARQIEGGLSREAGLYTAHEMMESLDP  -0.224
34. HMSWDNELLERAHKIIELYPQKRSALGPLLYLAQEKDGFISDDSIVEISNLVDITEVQVKSVSSFYSMY  -0.268
35. HMTGETWAERSRALAAAGLIVMGQEAKNKIEDLPSLSPLIEAAAASETRLLTGQIIDELLAFV  -0.288
36. HMEEVIEVEGKITAVLPSTMFRAELENGHQVLAHISGKLRKHFIKITVGDIVKMEMSTQDLQKARIV  -0.307
37. HMDRWTPLIVAVLIEGSHRFGELRSAIGGITPKVLTETLRSMERDGLVTRDQVPGVPPRVDYALTPLG  -0.334
38. HMNEDYFTIAGYASLRGVNIDTSKANMLGRKATKLSREYGYDIGKVTDTRFGKVNSYHLDILKSIFEF  -0.477
39. HMIPDLPAIGENLYRERKRQQLSMAELAAASGISKAMLSQIEADKVNPTIATLWKIAHALHVDLESLISGG  -0.578
40. HMFDVRWEQGYALAAAYAQEYGNLDVPRDYKTADGKKLGRWIQSQEQAYEQKKLSEEQISRLEMIGMQWG  -0.604
41. HMGNFFDSAILALKNAIQENYGGNVSQAARSLGISVPTLHTWIKGDRKPSLEKLSPILDALNAKIVL  -0.726
42. HMEDDPIYEQVMIFLLDKQITSAPELERRFKITHQRAIELLAQMEKTGIVSTMGHAGKRDVLT  -0.827
43. HMLLELINLQVKILENEELKIIGKVIDLENEKNNLLVIELLKDQKKVLVPFVKEIVPLIDIKNNFIMINPP  -0.897
44. HMVEVVDAEKLEERLSKVFSAAVLLEIYNENPAHGKEYAYLFTARKNAVEEMIENGQMKRETWEAK  -0.963
45. HMKRDNETRRRIVAAAEELFRAKGLDGVNMRELAEMAGVNKGLLHYYFKTKQALFREILVGQMAL  -1.05
46. HMINEDMTQSDRMELWGRLIDVVEDWLAEKGITEEDIPNEEREGVEDAAIIFGDDYDYLADRFSEVIGISR  -1.18
47. HMTVLTDEIKVILISYIKENDFKKKHGNRKMMMTAQDMYDELVEKGYKISYPTVTQYVQKYRENETT  -1.27
48. HMILPKFNQLLGQMGENIKLARKRRKLTAVQVSERAGIARSTLYLIEKGDASVSLGAYFNVLRVLG  -1.46
49. HMTMVKYRYLTDGELKEFEEEFKHFLIANGLHSEEWERLNNEDSNKAIEVVALFSNLILDKV  -1.54
50. HMSLNQRIKEARIKMGYTQEQLGNLIGVAKTTISGYEKNREPDAATIGLIIDALKVDANFLFQ  -1.62
51. HMWNGIVDAGKARQHLMNLSQLGVGRRAVAAASDVAETVLMDIRSGTKTRIRARTERQILAVTPEMA  -2.23
52. HMGIMSEITHRVLRLLGLLESRSTWTGSDLAERLGVTQRTIRRDVIRLRELGYQVDSVQGLDGGYRMS  -2.48
53. HMYMKLSVKDAALFLSVSPETVYRWVKQEEIPYHTVNDQLRFNRAELLEWATARSLEVSPDLFVP  -3.04
54. HMGLSENALAMLKQQETVLIRLIDGRGNQGALASINLIVSRILNLDIVDRTPEDLLRVIASEGEQND  -3.78
55. HMPRDYYAVLEVSVSSTPVQIRQAYQRLARRYSPDVNFLDRDTEALFEEIVEAYRVLSNPTARTLYDRG  -4.48
